Data reported in the supplement of paper PMC9112550, “Optimization of the antimicrobial peptide Bac7 by deep mutational scanning” (BMC Biology, 2022).

Test system: Escherichia coli TOP10
Test: shrunken log2 fold change of peptide-encoding DNA abundance (4.5 h post-induction vs induction); higher = less antimicrobial activity (less host growth inhibition)
Conditions: time post-induction: 4.5 h; library: site-saturation at positions 5, 18, 19, 20
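Note: peptides expressed intracellularly from a pBAD plasmid library in pooled LB shake-flask culture, induced with 0.3% L-arabinose, DNA abundance read by NGS, three biological replicates, DESeq2 with apeglm shrinkage.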

Sequence	shrunken log2 fold change
RRIRHRPPRLPRPRPRPCFNPRP	-0.588
RRIRTRPPRLPRPRPRPHEDPRP	-0.183
RRIRIRPPRLPRPRPRPSPEPRP	-0.241
RRIRCRPPRLPRPRPRPDSCPRP	0.0373
RRIRERPPRLPRPRPRPRWFPRP	0.0416
RRIRWRPPRLPRPRPRPITIPRP	-0.162
RRIRGRPPRLPRPRPRPGVLPRP	0.912
RRIRMRPPRLPRPRPRPPIPPRP	0.556
RRIRLRPPRLPRPRPRPDQMPRP	-0.0132
RRIRSRPPRLPRPRPRPPSLPRP	-0.119
RRIRGRPPRLPRPRPRPKPIPRP	0.177
RRIRYRPPRLPRPRPRPTKDPRP	-1.04
RRIRYRPPRLPRPRPRPPQYPRP	-0.795
RRIRERPPRLPRPRPRPFWIPRP	-0.165
RRIRKRPPRLPRPRPRPNITPRP	-0.0249
RRIRCRPPRLPRPRPRPHAYPRP	-0.759
RRIRYRPPRLPRPRPRPLHFPRP	-0.0434
RRIRARPPRLPRPRPRPQKSPRP	0.0945
RRIRSRPPRLPRPRPRPFNRPRP	-0.363
RRIRGRPPRLPRPRPRPEQYPRP	-0.183
RRIRWRPPRLPRPRPRPLQLPRP	0.0501
RRIRQRPPRLPRPRPRPKLRPRP	-0.0665
RRIRYRPPRLPRPRPRPQAMPRP	-0.418
RRIRERPPRLPRPRPRPNSRPRP	-0.481
RRIRQRPPRLPRPRPRPHAHPRP	0.000761

Sequence	shrunken log2 fold change
RRIRMRPPRLPRPRPRPHCTPRP	-0.147
RRIRARPPRLPRPRPRPPCTPRP	0.164
RRIRVRPPRLPRPRPRPGTNPRP	-0.254
RRIRWRPPRLPRPRPRPYNMPRP	-0.883
RRIRWRPPRLPRPRPRPLCNPRP	0.0306
RRIRHRPPRLPRPRPRPMCIPRP	-0.162
RRIRTRPPRLPRPRPRPKCEPRP	0.118
RRIRTRPPRLPRPRPRPWLTPRP	-0.0866
RRIRARPPRLPRPRPRPYGTPRP	-0.131
RRIRYRPPRLPRPRPRPMMSPRP	-0.322
RRIRWRPPRLPRPRPRPFRNPRP	-0.209
RRIRIRPPRLPRPRPRPKWCPRP	-0.317
RRIRFRPPRLPRPRPRPFCDPRP	-0.352
RRIRVRPPRLPRPRPRPEKAPRP	-0.114
RRIRLRPPRLPRPRPRPDAHPRP	0.133
RRIRTRPPRLPRPRPRPTHPPRP	0.312
RRIRERPPRLPRPRPRPLNGPRP	-0.254
RRIRKRPPRLPRPRPRPVQEPRP	0.0683
RRIRIRPPRLPRPRPRPSNYPRP	-0.086
RRIRPRPPRLPRPRPRPMYYPRP	-0.631
RRIRARPPRLPRPRPRPIKNPRP	0.00937
RRIRIRPPRLPRPRPRPAELPRP	-0.0331
RRIRGRPPRLPRPRPRPGDLPRP	2.41
RRIRLRPPRLPRPRPRPQKTPRP	-0.03
RRIRERPPRLPRPRPRPWAQPRP	-0.0813

Sequence	shrunken log2 fold change
RRIRDRPPRLPRPRPRPMGAPRP	1.43
RRIRNRPPRLPRPRPRPKLDPRP	0.00863
RRIRERPPRLPRPRPRPALDPRP	-0.0626
RRIRRRPPRLPRPRPRPRGFPRP	0.131
RRIRPRPPRLPRPRPRPDLHPRP	-0.316
RRIRTRPPRLPRPRPRPHTDPRP	-0.401
RRIRKRPPRLPRPRPRPYHTPRP	-0.673
RRIRWRPPRLPRPRPRPPRFPRP	0.326
RRIRYRPPRLPRPRPRPEFHPRP	0.00393
RRIRPRPPRLPRPRPRPGYAPRP	0.177
RRIRARPPRLPRPRPRPMKYPRP	-0.157
RRIRPRPPRLPRPRPRPDTEPRP	-0.48
RRIRFRPPRLPRPRPRPWCQPRP	-0.0361
RRIRRRPPRLPRPRPRPQCNPRP	0.0615
RRIRQRPPRLPRPRPRPVAYPRP	-0.0015
RRIRYRPPRLPRPRPRPHSSPRP	-0.207
RRIRLRPPRLPRPRPRPQNRPRP	-0.231
RRIRLRPPRLPRPRPRPVVAPRP	0.0705
RRIRMRPPRLPRPRPRPNYHPRP	-0.525
RRIRGRPPRLPRPRPRPDGPPRP	0.155
RRIRHRPPRLPRPRPRPHTSPRP	-0.0988
RRIRKRPPRLPRPRPRPNTMPRP	-0.209
RRIRNRPPRLPRPRPRPVLCPRP	0.0343
RRIRNRPPRLPRPRPRPLRYPRP	0.0165
RRIRCRPPRLPRPRPRPASTPRP	-0.481

Sequence	shrunken log2 fold change
RRIRDRPPRLPRPRPRPALGPRP	0.933
RRIRCRPPRLPRPRPRPWTRPRP	0.0156
RRIRLRPPRLPRPRPRPYPGPRP	-0.251
RRIRLRPPRLPRPRPRPSESPRP	-0.244
RRIRSRPPRLPRPRPRPWGYPRP	-0.226
RRIRQRPPRLPRPRPRPLNRPRP	-0.191
RRIRLRPPRLPRPRPRPMYKPRP	-0.44
RRIRMRPPRLPRPRPRPEWDPRP	3.48
RRIRARPPRLPRPRPRPSDTPRP	-0.339
RRIRKRPPRLPRPRPRPYDNPRP	0.0185
RRIRKRPPRLPRPRPRPTGYPRP	0.214
RRIRTRPPRLPRPRPRPCWIPRP	-0.1
RRIRPRPPRLPRPRPRPREKPRP	0.489
RRIRTRPPRLPRPRPRPTQVPRP	0.131
RRIRGRPPRLPRPRPRPIFAPRP	0.609
RRIRFRPPRLPRPRPRPAAFPRP	-0.0126
RRIRGRPPRLPRPRPRPFRLPRP	-0.194
RRIRYRPPRLPRPRPRPWSYPRP	-0.23
RRIRHRPPRLPRPRPRPEEAPRP	0.015
RRIRCRPPRLPRPRPRPAMMPRP	-0.0414
RRIRDRPPRLPRPRPRPFVVPRP	-0.266
RRIRCRPPRLPRPRPRPIAIPRP	-0.443
RRIRNRPPRLPRPRPRPWWRPRP	-0.0647
RRIRHRPPRLPRPRPRPLASPRP	-0.0121
RRIRYRPPRLPRPRPRPKTTPRP	-0.0197

Sequence	shrunken log2 fold change
RRIRMRPPRLPRPRPRPFEQPRP	0.0263
RRIRLRPPRLPRPRPRPTYKPRP	-0.244
RRIRYRPPRLPRPRPRPDILPRP	0.0101
RRIRVRPPRLPRPRPRPETTPRP	0.348
RRIRARPPRLPRPRPRPYWSPRP	-0.186
RRIRWRPPRLPRPRPRPSQKPRP	-0.0621
RRIRQRPPRLPRPRPRPFDVPRP	0.028
RRIRLRPPRLPRPRPRPHHPPRP	-0.316
RRIRHRPPRLPRPRPRPRVSPRP	0.106
RRIRDRPPRLPRPRPRPIMAPRP	-0.00298
RRIRMRPPRLPRPRPRPNSQPRP	-0.075
RRIRQRPPRLPRPRPRPFWDPRP	0.213
RRIRPRPPRLPRPRPRPDVVPRP	-0.00973
RRIRWRPPRLPRPRPRPPIVPRP	0.19
RRIRARPPRLPRPRPRPTNQPRP	0.153
RRIRNRPPRLPRPRPRPQYTPRP	-0.737
RRIRPRPPRLPRPRPRPRIHPRP	-0.00548
RRIRRRPPRLPRPRPRPLSNPRP	-0.0853
RRIRMRPPRLPRPRPRPYTSPRP	-0.265
RRIRLRPPRLPRPRPRPDPHPRP	-0.171
RRIRQRPPRLPRPRPRPPTDPRP	0.0902
RRIRKRPPRLPRPRPRPWCSPRP	-0.155
RRIRIRPPRLPRPRPRPEPMPRP	0.132
RRIRARPPRLPRPRPRPIVPPRP	0.0453
RRIRLRPPRLPRPRPRPCTKPRP	-0.22

Sequence	shrunken log2 fold change
RRIRSRPPRLPRPRPRPIFVPRP	0.0197
RRIRGRPPRLPRPRPRPFYHPRP	-0.102
RRIRHRPPRLPRPRPRPGDYPRP	-0.212
RRIRCRPPRLPRPRPRPTGQPRP	0.123
RRIRPRPPRLPRPRPRPMKVPRP	-0.0686
RRIRIRPPRLPRPRPRPLAQPRP	-0.116
RRIRDRPPRLPRPRPRPGYVPRP	-0.153
RRIRNRPPRLPRPRPRPPVPPRP	0.384
RRIRERPPRLPRPRPRPQSPPRP	-0.062
RRIRCRPPRLPRPRPRPDTQPRP	-0.239
RRIRVRPPRLPRPRPRPMTRPRP	-0.123
RRIRPRPPRLPRPRPRPDLRPRP	-0.124
RRIRERPPRLPRPRPRPMNFPRP	-0.192
RRIRTRPPRLPRPRPRPFHHPRP	-0.775
RRIRGRPPRLPRPRPRPVTTPRP	1.21
RRIRERPPRLPRPRPRPWAVPRP	-0.0984
RRIRGRPPRLPRPRPRPVTEPRP	0.706
RRIRYRPPRLPRPRPRPKFPPRP	-1.01
RRIRLRPPRLPRPRPRPHHVPRP	-0.272
RRIRARPPRLPRPRPRPVYRPRP	0.144
RRIRFRPPRLPRPRPRPSAGPRP	0.192
RRIRKRPPRLPRPRPRPWRKPRP	0.0487
RRIRLRPPRLPRPRPRPFPRPRP	-0.163
RRIRNRPPRLPRPRPRPTHEPRP	0.0695
RRIRCRPPRLPRPRPRPGRCPRP	0.436
